The target of assay [1] is T1, Human OX40 expressed on the surface of activated human CD4+OX40+ T cells (human, UniProt P43489 29-277).
T1 construct: whole, on cells; Also used as the target for the functional assays on human PBMC (endogenous OX40); also called cell surface OX40; cell-surface expressed OX40
T1 sequence (looked up): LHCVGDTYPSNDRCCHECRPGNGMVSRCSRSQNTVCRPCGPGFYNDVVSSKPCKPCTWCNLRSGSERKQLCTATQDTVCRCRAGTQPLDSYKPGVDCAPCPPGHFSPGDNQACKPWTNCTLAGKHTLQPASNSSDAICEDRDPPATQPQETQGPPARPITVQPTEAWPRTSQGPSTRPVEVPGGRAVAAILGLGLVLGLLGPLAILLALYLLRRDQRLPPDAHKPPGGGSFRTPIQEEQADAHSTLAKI
The assay is described as follows: flow cytometry saturation binding on activated human CD4+ T cells; mean, n = 3. The protocol:
(§1) PBMC were isolated by separation on a Ficoll gradient and activated with 1 μg/mL PHA-L for 3 days at 37° C., 5% CO₂, 100% humidity. CD4⁺ T cells were isolated by negative selection using magnetic beads (CD4⁺ T cell Isolation Kit II for Human; Miltenyi Biotec). […] The cells were washed prior to analysis by flow cytometry using a FACScalibur (Becton Dickinson). Two titration curves were produced, one with A26Fab′-PEG and a second with gA33 Fab′-PEG as a non-specific binding control. Linear regression analysis was used to subtract non-specific binding and the specific binding curve thus generated was analysed by non-linear regression (Graphpad Prism®) to determine KD.
For orientation: Flow cytometry measures light scatter and fluorescence of single cells or particles in a stream.

Assay [2] addresses T2, Rhesus OX40 on activated rhesus CD4+ T cells (rhesus, UniProt P16003 26-458). Put plainly: flow cytometry saturation binding on activated rhesus CD4+ T cells; n = 1.
The target of assay [3] is T3, Human OX40 extracellular (185 aa) domain fused to the murine IgG2a Fc (232 aa) (Ancell No 513-020) (human; murine, UniProt P43489 29-214).
T3 construct: extracellular domain; Bought reagent; also called recombinant OX40; human extracellular domain OX40; not shown: murine IgG2a Fc, 232 aa
T3 sequence (looked up): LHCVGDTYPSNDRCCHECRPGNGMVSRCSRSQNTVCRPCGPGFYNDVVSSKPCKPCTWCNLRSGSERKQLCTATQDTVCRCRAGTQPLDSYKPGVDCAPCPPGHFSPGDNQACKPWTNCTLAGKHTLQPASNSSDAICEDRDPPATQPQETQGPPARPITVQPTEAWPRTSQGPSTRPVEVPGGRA
The assay is described as follows: BIAcore 3000 SPR; antibody captured, human OX40-mFc as analyte; average of 4 determinations. The protocol: (§2) BIA (Biamolecular Interaction Analysis) was performed using a BIAcore 3000 (BIAcore AB). Affinipure F(ab′)₂ Fragment goat anti-human IgG, F(ab′)₂ fragment specific (Jackson ImmunoResearch) was immobilised on a CM5 Sensor Chip via amine coupling chemistry to a capture level of ≈4000 response units (RUs). HBS-EP buffer (10 mM HEPES pH 7.4, 0.15 M NaCl, 3 mM EDTA, 0.005% Surfactant P20, BIAcore AB) was used as the running buffer with a flow rate of 10 μl/min. A 10 μl injection of Fab′ at 0.5 μg/mL or Fab′-PEG at 50 μg/mL was used for capture by the immobilised anti-human IgG-F(ab′)₂. Human OX40 was titrated over the captured antibody at various concentrations (25 nM to 0.78 nM) at a flow rate of 30 μL/min. The surface was regenerated by a 10 μL injection of 40 mM HCl, followed by a 5 μL injection of 5 mM NaOH at a flowrate of 10 μL/min.
(§3) Background subtraction binding curves were analysed using the BlAevaluation software (version 3.2) following standard procedures. Kinetic parameters were determined from the fitting algorithm.

The target of assay [4] is T1, Human OX40 expressed on the surface of …. The assay is described as follows: cell-based or functional assay.
Assay [5] has the same target. Put plainly: flow cytometry ligand blocking assay on activated human CD4+OX40+ T cells; competitor biotinylated OX40L (CD252 muCD8) at 2 µg/ml. As to the method:
The capacity of A26Fab′-PEG to block the interaction between cell-surface expressed OX40 and recombinant OX40L was measured using a flow cytometry-based ligand blocking assay. Briefly, activated human CD4⁺OX40⁺ T cells were pre-incubated with a titration of A26Fab′-PEG. Recombinant OX40L was subsequently added to the cells and allowed to bind in the presence of A26 Fab′-PEG. The proportion of OX40L bound was then detected by flow cytometry using a labelled secondary reagent.
Methods: Inhibition of OX40L binding to human activated CD4⁺OX40⁺ T Cells by A26Fab′-PEG. PBMC were isolated by separation on a Ficoll gradient and activated with 1 μg/mL PHA-L for 3 days at 37° C., 5% CO₂, 100% humidity. 2.5×10⁵ cells were incubated in the presence of antibody (final concentration range 20 μg/mL-0.0003 μg/mL (229 nM-0.0035 nM)) for 10 minutes on ice. OX40L (biotinylated CD252 muCD8, Ancell) was added at a final concentration of 2 μg/ml and incubated for a further 30 minutes on ice. Cells were washed and OX40L binding detected by incubation with PE-labelled streptavadin (Jackson Immunoresearch) prior to analysis by flow cytometry using a FACScalibur (Becton Dickinson). gA33 Fab′-PEG was used as a non-specific control. The inhibition curve was analysed by non-linear regression (Graphpad Prism®) to determine the IC₅₀. The data shown is from one representative donor of two.

Assay [6] addresses T3, Human OX40 extracellular (185 aa) …. The assay is described as follows: BIAcore 3000 SPR; antibody captured by immobilised anti-human F(ab′)2, human OX40-mFc titrated as analyte. The protocol:
as §2, §3

The target of assay [7] is Cynomolgus OX40 on activated cynomolgus CD4+ T cells (cynomolgus) (UniProt P79185). The assay is described as follows: flow cytometry saturation binding on activated cynomolgus CD4+ T cells; n = 3.
The target in assay [8] is T1, Human OX40 expressed on the surface of …. Put plainly: cell-based or functional assay. The source holds these as a separate data set.
For assay [9] the target is unchanged. Put plainly: flow cytometry saturation binding of FITC labelled antibody on activated human CD4+OX40+ T cells; one of 3 donors. The protocol:
Binding of FITC labelled A26Fab′-PEG to activated human CD4⁺OX40⁺ T cells was measured by flow cytometry across a 4-log concentration range.
as §1

Assay [10] deals with Cynomolgus OX40 on activated cynomolgus CD4+ T cells (cynomolgus) (UniProt P79185). Put plainly: flow cytometry equilibrium binding on activated CD4+ T cells, against human cells as reference.
The target in assay [11] is T2, Rhesus OX40 on activated rhesus CD4+ T …. The assay is described as above.
Assay [12] addresses T3, Human OX40 extracellular (185 aa) …. Put plainly: BIAcore 3000 SPR; antibody captured, human OX40-mFc as analyte; average of 5 determinations. The protocol:
as §2, §3
(Surface plasmon resonance follows binding to a sensor surface in real time, without labels.)

Where “and” joins values, the source holds several entries; their conditions need not be identical. Identical values can stand only once.

As usually defined, the Kd is the concentration at which binding is half-saturated. Low values mean a tighter complex, high ones a looser complex. For orientation: koff means the rate constant with which the complex falls apart. High values mean a short-lived complex, low ones a long-lived complex. What is called kon is a measure of how fast the partners come together. Read a low kon as slower complex formation. As a reminder, the IC50 is the concentration at which inhibition is half-maximal.

T2 sequence (P16003 26-458): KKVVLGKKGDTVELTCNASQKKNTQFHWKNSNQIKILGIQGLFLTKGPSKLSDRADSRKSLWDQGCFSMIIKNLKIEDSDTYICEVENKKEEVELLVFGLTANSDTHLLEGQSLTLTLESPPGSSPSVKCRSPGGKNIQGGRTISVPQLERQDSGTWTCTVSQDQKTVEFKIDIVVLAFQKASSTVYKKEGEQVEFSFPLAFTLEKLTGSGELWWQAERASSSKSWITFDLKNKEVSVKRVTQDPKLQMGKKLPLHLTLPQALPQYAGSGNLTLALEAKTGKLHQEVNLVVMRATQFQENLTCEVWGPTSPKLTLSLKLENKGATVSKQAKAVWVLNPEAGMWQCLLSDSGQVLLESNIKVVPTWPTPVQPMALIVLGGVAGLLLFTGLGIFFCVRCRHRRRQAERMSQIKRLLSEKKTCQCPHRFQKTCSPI

B1: A26Fab′-PEG (PEGylated A26 Fab′ fragment) (Fab, V domains shown)
VH: EVQLVESGGGLVQPGGSLRLSCAASGFTFTNYGIHWIRQAPGKGLEWVASISPSGGLTYYRDSVKGRFTISRDDAKNSPYLQMNSLRAEDTAVYYCATGGEGIFDYWGQGTLVTVSS
VL: DIQMTQSPSSLSASVGDRVTITCRATQSIYNALAWYQQKPGKAPKLLIYNANTLHTGVPSRFSASGSGTDSTLTISSLQPEDFATYYCQQYYDYPLTFGGGTKVEIKR
modifications: Cys 226 (linear numbering of SEQ ID NO:15): lysyl-maleimide group, each amino group of the lysyl residue linked to a methoxypoly(ethyleneglycol) of about 20,000 Da (total PEG about 40,000 Da)
notes: also called A26Fab′-PEGylated
B1: in assay [1], the Kd is 1.11 nM. The molecule also returned an equilibrium dissociation constant (Kd) in assay [2] of 1.2 nM. Further, in assay [3], the affinity, expressed as Kd, was 0.0313 nM; the dissociation rate constant (koff) stood at 1.3e-05 s⁻¹; the on-rate (kon) was 476000 M⁻¹ s⁻¹. Further, in [4], the “IC50 for inhibition of proliferation, Tetanus Toxoid response, donor 1” value is 0.58 nM and 0.051 µg/mL; the “IC50 for inhibition of proliferation, Tetanus Toxoid response, donor 2” value is 1.11 nM and 0.097 µg/mL. Moreover, the IC50 in [5] was 4.1 nM. Also, the Kd in assay [6] was 0.0137 to 0.0503 nM. In assay [7], this molecule displayed a Kd of 1.86 nM. Besides, in [8], the “House Dust Mite - Inhibition of IL-13 production (n = 3), Mean IC50 (nM)” value was found to be 1.23 nM; the “House Dust Mite - Inhibition of IL-13 production (n = 3), Mean IC50 (µg/ml)” value is 0.107 µg/mL; the “Mixed Lymphocyte Reaction - Inhibition of Proliferation (n = 10), Mean IC50 (nM)” value was found to be 2.15 nM; the “Mixed Lymphocyte Reaction - Inhibition of Proliferation (n = 10), Mean IC50 (µg/ml)” value stood at 0.188 µg/mL. In [8], the “Tetanus Toxoid - Inhibition of Proliferation (n = 2), Mean IC50 (nM)” value is 0.845 nM and the “Tetanus Toxoid - Inhibition of Proliferation (n = 2), Mean IC50 (µg/ml)” value turned out to be 0.0733 µg/mL. Also, the Kd in [9] was 1.19 nM and 1.07 nM and 1.05 nM. The fold drop off in affinity as compared to human in assay [10] was less than 2 fold. Also, the “fold drop off in affinity as compared to human” value in [11] was less than 2 fold.

B2: A26 (humanised CA044-00026, graft gL8gH2) Fab′ fragment, unPEGylated (Fab, V domains shown)
VH: B1 VH
VL: B1 VL
notes: Produced in E. coli; the OmpA signal peptide is cleaved off; also called unPEGylated humanised Fab fragment A26
Turning to B2, in assay [12], the dissociation constant (Kd) was 0.0296 nM, the koff stood at 1.29e-05 s⁻¹ and the kon was found to be 486000 M⁻¹ s⁻¹. The molecule also showed a dissociation constant (Kd) in assay [6] of 0.019 to 0.0454 nM.

Values taken from US20100254978A1 (UCB, published 2010).
